Data from publication PMC5810956 (Immunity, 2018).

What was measured:
[1] = target: T1, HA head domain of A/Texas/50/2012 (H3N2) (Influenza A virus A/Texas/50/2012 (H3N2), strain); experiment: BLI
[2] = target: HA head of A/Florida/904/2000 (H1N1) (Influenza A virus A/Florida/904/2000 …, UniProt Q91R26, strain); experiment: BLI
[3] = target: T1, HA head domain of A/Texas/50/2012 (H3N2); experiment: crystal structure

B1: K03.1-12 lineage unmutated common ancestor (UCA) Fab (tag removed, for binding studies) (Fab, V domains shown)
VH: not shown
VL: QSALTQPASVSGSPGQSITISCTGTSSDVGSYNLVSWYQQHPGKAPKLMIYEGSKRPSGVSNRFSGSKSGNTASLTISGLQAEDEADYYCCSYAGSVVFGGGTKLTVL
B1: binds [1]; binds [2].

B2: I-11 Fab (inferred evolutionary intermediate of the K03.1-12 lineage) (Fab, V domains shown)
VH: not shown
VL: QSALTQPASVSGSPGQSVTISCTGTSSDVGSYNLVSWYQQHPGKAPKLMIYEGSKRPSGVSNRFSGSKSGNTASLTISGLQAEDEADYYCCSYAGSVVFGGGTKLTVL
B2: binds [1]; binds [2].

B3: K03.12 Fab (tag removed, for binding studies) (Fab, V domains shown)
VH: EVQLVQSGAEVKKPGASVKVSCKTSGYTFTAYYLHWVRQAPGQGFEWMAWINPNTGDTNYAQKFQGRVTLSRDTSITTAYMELTRLRSDDTAVYYCAKDLTLMYVFDSGWARGAHDYYGMDVWGQGTTVAVSG
VL: PSALTQPASVSGSPGQSVTISCTGTNSDVGTFDLVSWYQQYPGKAPKLIIYEGSRRPSGVSDRFSGSKSGNTASLTISGLQAEDEADYYCSSYAGSVVFGGGTKLTVL
B3: binds [1]; binds [2].

B4: K03.12 Fab for crystallization (noncleavable 6xHis tag) (Fab, V domains shown)
VH: EVQLVQSGAEVKKPGASVKVSCKTSGYTFTAYYLHWVRQAPGQGFEWMAWINPNTGDTNYAQKFQGRVTLSRDTSITTAYMELTRLRSDDTAVYYCAKDLTLMYVFDSGWARGAHDYYGMDVWGQGTTVAVSG
VL: PSALTQPASVSGSPGQSVTISCTGTNSDVGTFDLVSWYQQYPGKAPKLIIYEGSRRPSGVSDRFSGSKSGNTASLTISGLQAEDEADYYCSSYAGSVVFGGGTKLTVL
B4: binds [3].
